Test results taken from patent US6482410B1, “Cytotactin derivatives that stimulate attachment and neurite outgrowth, and methods of making same” (The Scripps Research Institute, priority 1994, dated 2002).
Where “and” joins values, the source holds several entries; their conditions need not be identical. Identical values can stand only once. Entries after “also recorded” stand apart in the source; their conditions may differ.

B1: CTfn3: CT:GST fusion protein, fibronectin type III repeat III, residues 774-864 of SEQ ID NO 4 (protein)
chain: LDAPSQIEAKDVTDTTALITWSKPLAEIEGIELTYGPKDVPGDRTTIDLSEDENQYSIGNLRPHTEYEYEVTLISRRGDMESDPAKEVFVT
modifications: left off: a dimerising Fc or GST
B2: CTfg: CT:GST fusion protein, entire fibrinogen domain, residues 1570-1810 of SEQ ID NO 4 (protein)
chain: SMRSKMIQTVFTTTGLLYPYPKDCSQALLNGEVTSGLYTIYLNGDRTQPLQVFCDMAEDGGGWIVFLRRQNGKEDFYRNWKNYVAGFGDPKDEFWIGLENLHKISSQGQYELRVDLRDRGETAYAVYDKFSVGDAKTRYRLRVDGYSGTAGDSMTYHNGRSFSTFDKDNDSAITNCALSYKGAFWYKNCHRVNLMGRYGDNNHSQGVNWFHWKGHEYSIQFAEMKLRPSSFRNLEGRRKRA
modifications: left off: a dimerising Fc or GST
B3: CTfn6: CT:GST fusion protein, fibronectin type III repeat VI, residues 1318-1398 of SEQ ID NO 4 (protein)
chain: VVGSPKGISFSDITENSARVSWTPPRSRVDSYRVSYVPITGGTPNVVTVDGSKTRTKLVKLVPGVDYNVNIISVKGFEESE
modifications: left off: a dimerising Fc or GST

Legend:
[1] = test system: dorsal root ganglia (DRG) neurons; assay: Two-dimensional neurite outgrowth assay, DRG, 15 hours; format: cell-based, chicken; settings: 15 hours; for neurite promoting activity on DRG cells: low density; for % Sprouting / Neurite Length: Table 4, DRG; for % Sprouting: neurites greater than one cell diameter; for Neurite Length: per neurite-bearing cell; for Percent Sprouting / Neurite Length (in microns): Table 5, DRG; for Percent Sprouting: six experiments; for Neurite Length (in microns): three experiments
Protocol: (§1) Dorsal root ganglia (DRG) cells or forebrain neurons were prepared for the cell attachment assays as follows. DRG from day 6 chicken embryos or forebrains from day 7 chicken embryos were dissected into HBSS. The tissue was pelleted by centrifugation and resuspended in CMF-HBSS and incubated at 37° C. for 10 minutes. The tissue was pelleted again and resuspended in CMF-HBSS containing 0.08% trypsin and allowed to trypsinize for 20 minutes at 37° C. An equal volume of DMEM/F12, 10% FCS, 20 ng/ml nerve growth factor (NGF) (for DRG cells only), 10 μg/ml gentamycin (10% medium) was added, and the tissue was pelleted and resuspended in 2 ml of the 10% medium. The cells were triturated with a fire-polished Pasteur pipette for 15 strokes, and the cells were washed and resuspended in 10 ml of 10% medium. DRG cells were plated in a 10 cm tissue culture dish and incubated for 1 hour at 37° C. in 5% CO2, to allow for attachment of contaminating fibroblasts.
(§2) After replating, the cells were harvested, pelleted and washed three times in DMEM/F12, 1% fetal calf serum (FCS), 20 ng/ml NGF (for DRG cells only), 10 μg/ml gentamycin (1% medium), and the number of cells determined using a hemocytometer. The DRG were resuspended to a density of 6×10^5 cells/ml in attachment buffer. The neurons were resuspended to a density of 2×10^4 cells/ml in 1% medium and added to substrates and placed at 37° C., 5% CO2 for 15 hours.
After the growth period, the dishes were gently rinsed with PBS to remove unbound cells, fixed with 1% glutaraldehyde, and viewed by phase contrast microscopy. Ten to forty cells were analyzed for each substrate. Cells were judged as neurite-bearing if the length of the processes was greater than one cell diameter. All cells with neurites were photographed with a 20× objective and total neurite length per neurite-bearing cell was derived from the photographic prints. Percentage of neuronal sprouting was calculated from at least six experiments. Neurite length was calculated from at least three experiments.
This extensive neurite outgrowth after 40 hours made quantitation of the percentage of neurite-bearing cells and neurite length difficult. To analyze quantitatively the effect of CT/TN fusion proteins on DRG neurite outgrowth, DRG cells were therefore plated at low density on CT/TN or CT/TN fragments and analyzed after 15 hours in culture for the percentage of cells that sprouted neurites greater than one cell diameter and for the everage neurite length per neuron. These conditions enhanced the number of isolated cells and discouraged the cell-cell interactions and fasciculation that occurred in the long-term cultures.
The proteins used in the neurite outgrowth assays are the same as those used in the cell attachment assays. […] In addition, poly-L-lysine was adsorbed to the solid support. […] Any cells adhering to the solid support were examined for sprouting and neurite length as defined herein.
Proteins used in the neurite outgrowth assays were prepared as described in Example 5.A.2.
Dorsal root ganglia (DRG) from day 6 chicken embryos were prepared as described in Example 5.A.4. For the neurite outgrowth assays, the DRG were resuspended at a density of 2×10^4 cells/ml in 1% medium, added to solid support, and placed at 37° C. in 5% CO2 for 15 hours. After the attachment and growth period, the dishes were gently rinsed with PBS to remove unbound cells, fixed with 1% (v/v) glutaraldehyde, and viewed by phase contrast microscopy. Ten to thirty cells were analyzed for each adsorbed protein spot. Cells were judged as neurite-bearing if the length of the processes were greater than one cell diameter. All cells with neurites were photographed with a 40× objective and the total neurite length per neurite-bearing cell was derived from the prints. The percent of cells that were sprouting and the average neurite length was derived from six and three independent experiments, respectively. […]

[2] = test system: dorsal root ganglia (DRG) cells; assay: Cell attachment assay, DRG neurons on protein-coated solid support; format: cell-based, chicken; settings: short-term attachment assay
Protocol: as §1
as §2, with “The neurons were resuspended to a density of 2×10^4 cells/ml in 1% medium and added to substrates and placed at 37° C., 5% CO2 for 15 hours.” left out
Chicken fibroblasts, DRG, and solid supports (dishes) coated with CT for use in the cell attachment assays were prepared as described in Examples 5.A.2-4, respectively. […] The number of bound cells was determined using a 10× objective with an eyepiece reticle. The number of cells was determined in four fields for each fusion protein dot as the number of cells bound per […]. […] The number of cells bound for CT was expressed as the average of the twelve measurements±standard deviation […]. […]
Cell attachment assays were performed essentially as follows. […] The cells were then washed in attachment buffer (CMF-HBSS, 10 mM Hepes, 1 mM CaCl2, 1 mM MgCl2, 0.1 mM MnCl2, 2% BSA) three times, counted in a hemocytometer, resuspended to a density of 6×10^5 cells/ml. […]

Row | Molecule | DRG neurite length versus polylysine ([1]; DRG) | average neurite length relative to poly-L-lysine ([1]; DRG) [times] | percentage of neurite-bearing DRG cells versus polylysine ([1]; DRG) | neurite promoting activity on DRG cells ([1]; DRG) | % Sprouting [1] [%] | Neurite Length [1] [microns] | Percent Sprouting [1] | Neurite Length (in microns) [1] [microns] | DRG neuron attachment to coated substrate (words) [2] | DRG neuron attachment to coated substrate (words) ([2]; listed as Ctfn6) | increase in number of neurite-bearing cells over polylysine ([1]; DRG)
1 | B1 | significantly longer | 3 | comparable; also recorded: the same as on poly-L-lysine | did show neurite promoting activity | 12 ± 2 | 260 ± 141 | 12 ± 2 | 260 ± 141 | – | – | –
2 | B2 | not statistically different; also recorded: statistically indistinguishable | – | comparable | did show neurite promoting activity | 8 ± 3 | 82 ± 23 | 8 ± 3 | 83 ± 23 | able to support DRG neuron attachment; also recorded: attached well | – | –
3 | B3 | not statistically different; also recorded: statistically indistinguishable | – | increase in neurite outgrowth over poly-L-lysine | did show neurite promoting activity | 31 ± 2 | 153 ± 124 | 31 ± 2 | 154 ± 124 | able to support DRG neuron attachment; also recorded: supports both fibroblast and neuronal cell attachment | support fibroblast and neuronal cell attachment | 82% and 57%
